Reference: patent US11485769B2, “Peptides and combination of peptides for use in immunotherapy and methods for generating scaffolds for the use against pancreatic cancer and other cancers” (Immatics Biotechnologies GmbH, priority 2015, dated 2022)

Target: HLA-A*02:01 (Homo sapiens, UniProt P04439, D140Y/D185E/D98H/E176V/E277Q/G131W/G231S/I119V/I121R/I166T/I218V/L300P/L318F/N151K/N90K/P208A/P217A/Q86G/Q94H/R138H/R169H/T345S)
Test: MHC binding assay (UV-ligand exchange, beta2m ELISA, peptide exchange yield)
Settings: binding to HLA-A*02:01 ranged by peptide exchange yield, β2m ELISA
Excerpt: Candidate peptides for T cell based therapies according to the present invention were further tested for their MHC binding capacity (affinity). The individual peptide-MHC complexes were produced by UV-ligand exchange, where a UV-sensitive peptide is cleaved upon UV-irradiation, and exchanged with the peptide of interest as analyzed. Only peptide candidates that can effectively bind and stabilize the peptide-receptive MHC molecules prevent dissociation of the MHC complexes. To determine the yield of the exchange reaction, an ELISA was performed based on the detection of the light chain (β2m) of stabilized MHC complexes. The assay was performed as generally described in Rodenko et al. (Rodenko et al., 2006).
96 well MAXISorp plates (NUNC) were coated over night with 2 ug/ml streptavidin in PBS at room temperature, washed 4× and blocked for 1 h at 37° C. in 2% BSA containing blocking buffer. Refolded HLA-A*02:01/MLA-001 monomers served as standards, covering the range of 15-500 ng/ml. Peptide-MHC monomers of the UV-exchange reaction were diluted 100 fold in blocking buffer. Samples were incubated for 1 h at 37° C., washed four times, incubated with 2 ug/ml HRP conjugated anti-μ2m for 1h at 37° C., washed again and detected with TMB solution that is stopped with […]. Absorption was measured at 450 nm. Candidate peptides that show a high exchange yield (preferably higher than 50%, most preferred higher than 75%) are generally preferred for a generation and production of antibodies or fragments thereof, and/or T cell receptors or fragments thereof, as they show sufficient avidity to the MHC molecules and prevent dissociation of the MHC complexes.
MHC class I binding scores. Binding of HLA-class I restricted peptides to HLA-A*02:01 was ranged by peptide exchange yield: ≥10%=+; ≥20%=++; ≥50=+++; >75%=++++

Row | Substance | Peptide exchange (MHC class I binding score)
1 | 70 (VLGVIWGV; listed as Homo sapiens) [compound 70] | “++++” (>75%=++++)
2 | 71 (VLLPEGGITAI; listed as Homo sapiens) [compound 71] | “+++” (≥50=+++)
3 | 72 (VMASPGGLSAV; listed as Homo sapiens) [compound 72] | “+++” (≥50=+++)
4 | 73 (VMVDGKPVNL; listed as Homo sapiens) [compound 73] | “++++” (>75%=++++)
5 | 74 (YIDKDLEYV; listed as Homo sapiens) [compound 74] | “+++” (≥50=+++)
6 | 77 (RLFPGSSFL; listed as Homo sapiens) [compound 77] | “++++” (>75%=++++)
7 | 78 (SLQDTEEKSRS; listed as Homo sapiens) [compound 78] | “+++” (≥50=+++)
8 | 79 (VVYEGQLISI; listed as Homo sapiens) [compound 79] | “+++” (≥50=+++)
9 | 80 (LLPGTEYVVSV; listed as Homo sapiens) [compound 80] | “+++” (≥50=+++)
10 | 81 (VVYDDSTGLIRL; listed as Homo sapiens) [compound 81] | “+++” (≥50=+++)
11 | 82 (ALIAEGIAL; listed as Homo sapiens) [compound 82] | “+++” (≥50=+++)
12 | 83 (ALSKEIYVI; listed as Homo sapiens) [compound 83] | “+++” (≥50=+++)
13 | 84 (FILPIGATV; listed as Homo sapiens) [compound 84] | “++++” (>75%=++++)
14 | 85 (FLSDGTIISV; listed as Homo sapiens) [compound 85] | “++++” (>75%=++++)
15 | 86 (GLGDFIFYSV; listed as Homo sapiens) [compound 86] | “++++” (>75%=++++)
16 | 87 (GLLPALVAL; listed as Homo sapiens) [compound 87] | “+++” (≥50=+++)
17 | 88 (IIDDTIFNL; listed as Homo sapiens) [compound 88] | “+++” (≥50=+++)
18 | 89 (KLADIQIEQL; listed as Homo sapiens) [compound 89] | “+++” (≥50=+++)
19 | 90 (KLLTPITTL; listed as Homo sapiens) [compound 90] | “+++” (≥50=+++)
20 | 91 (LLFNDVQTL; listed as Homo sapiens) [compound 91] | “+++” (≥50=+++)
21 | 92 (YLTNEGIAHL; listed as Homo sapiens) [compound 92] | “++++” (>75%=++++)
22 | 93 (SIDSEPALV; listed as Homo sapiens) [compound 93] | “+++” (≥50=+++)

Row | Substance | Peptide exchange (MHC class I binding score)
23 | 94 (VMMEEFVQL; listed as Homo sapiens) [compound 94] | “+++” (≥50=+++)
24 | 95 (ALADDDFLTV; listed as Homo sapiens) [compound 95] | “+++” (≥50=+++)
25 | 96 (ALAPATGGGSLLL; listed as Homo sapiens) [compound 96] | “+++” (≥50=+++)
26 | 97 (ALDDMISTL; listed as Homo sapiens) [compound 97] | “+++” (≥50=+++)
27 | 98 (ALDQKVRSV; listed as Homo sapiens) [compound 98] | “++” (≥20%=++)
28 | 99 (ALESFLKQV; listed as Homo sapiens) [compound 99] | “+++” (≥50=+++)
29 | 100 (ALFGAGPASI; listed as Homo sapiens) [compound 100] | “+++” (≥50=+++)
30 | 101 (ALVEENGIFEL; listed as Homo sapiens) [compound 101] | “+++” (≥50=+++)
31 | 102 (ALYPGTDYTV; listed as Homo sapiens) [compound 102] | “+++” (≥50=+++)
32 | 103 (AVAAVLTQV; listed as Homo sapiens) [compound 103] | “+++” (≥50=+++)
33 | 104 (FLQPDLDSL; listed as Homo sapiens) [compound 104] | “+++” (≥50=+++)
34 | 105 (FLSEVFHQA; listed as Homo sapiens) [compound 105] | “+++” (≥50=+++)
35 | 106 (FVWSGTAEA; listed as Homo sapiens) [compound 106] | “+++” (≥50=+++)
36 | 107 (FVYGGPQVQL; listed as Homo sapiens) [compound 107] | “+++” (≥50=+++)
37 | 109 (ILASVILNV; listed as Homo sapiens) [compound 109] | “++++” (>75%=++++)
38 | 110 (ILLTGTPAL; listed as Homo sapiens) [compound 110] | “+++” (≥50=+++)
39 | 111 (LLLAAARLAAA; listed as Homo sapiens) [compound 111] | “+++” (≥50=+++)
40 | 112 (LLSDVRFVL; listed as Homo sapiens) [compound 112] | “+++” (≥50=+++)
41 | 113 (LMMSEDRISL; listed as Homo sapiens) [compound 113] | “+++” (≥50=+++)
42 | 114 (SLFPHNPQFI; listed as Homo sapiens) [compound 114] | “+++” (≥50=+++)
43 | 115 (SLMDPNKFLLL; listed as Homo sapiens) [compound 115] | “+++” (≥50=+++)

Other lines, results leading:

Row | Peptide exchange (MHC class I binding score) | Substance
44 | “++++” (>75%=++++) | 116 (SMMDPNHFL; listed as Homo sapiens) [compound 116]
45 | “+++” (≥50=+++) | 117 (SVDGVIKEV; listed as Homo sapiens) [compound 117]
46 | “+++” (≥50=+++) | 118 (TLWYRPPEL; listed as Homo sapiens) [compound 118]
47 | “+++” (≥50=+++) | 119 (VLGDDPQLMKV; listed as Homo sapiens) [compound 119]
48 | “++” (≥20%=++) | 121 (YLDEDTIYHL; listed as Homo sapiens) [compound 121]
49 | “++++” (>75%=++++) | 122 (MQAPRAALVFA; listed as Homo sapiens) [compound 122]
50 | “++” (≥20%=++) | 123 (KISTITPQI; listed as Homo sapiens) [compound 123]
51 | “+++” (≥50=+++) | 124 (ALFEESGLIRI; listed as Homo sapiens) [compound 124]
52 | “+++” (≥50=+++) | 125 (ALLGKLDAINV; listed as Homo sapiens) [compound 125]
53 | “++++” (>75%=++++) | 126 (ALLSLDPAAV; listed as Homo sapiens) [compound 126]
54 | “++++” (>75%=++++) | 127 (ALSDLALHFL; listed as Homo sapiens) [compound 127]
55 | “+++” (≥50=+++) | 128 (ALYDVRTILL; listed as Homo sapiens) [compound 128]
56 | “+++” (≥50=+++) | 129 (ALYEKDNTYL; listed as Homo sapiens) [compound 129]
57 | “+++” (≥50=+++) | 130 (FLFGEEPSKL; listed as Homo sapiens) [compound 130]
58 | “+++” (≥50=+++) | 131 (FLIEEQKIVV; listed as Homo sapiens) [compound 131]
59 | “+++” (≥50=+++) | 132 (FLWAGGRASYGV; listed as Homo sapiens) [compound 132]
60 | “++” (≥20%=++) | 133 (ILDDVSLTHL; listed as Homo sapiens) [compound 133]
61 | “+++” (≥50=+++) | 134 (ILLAEGRLVNL; listed as Homo sapiens) [compound 134]
62 | “+++” (≥50=+++) | 135 (KLDDTYIKA; listed as Homo sapiens) [compound 135]
63 | “++++” (>75%=++++) | 136 (KLFPGFEIETV; listed as Homo sapiens) [compound 136]
64 | “+++” (≥50=+++) | 137 (KLGPEGELL; listed as Homo sapiens) [compound 137]
65 | “+++” (≥50=+++) | 138 (NIFPNPEATFV; listed as Homo sapiens) [compound 138]
